The text below walks through data of the supplement of paper PMC10201428.

± gives the standard deviation of the averaged measurements.

The data set has as its system VchCAST RNA-guided transposition machinery (E. coli BL21(DE3) host, lacZ target). Briefly: relative integration efficiency (T-LR orientation) vs wild-type transposon end (log2 (normalized fold change)); transposon end mutated: right end (5 bp flank + 75 bp right end); higher = more efficient transposition. The method, boiled down:
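Each barcoded pool, 1549 left-end or 1849 right-end transposon variants in a pUC57 mini-transposon donor, went into E. coli BL21(DE3) with a T7-driven effector plasmid (CRISPR array, tniQ-cas8-cas7-cas6, tnsA-tnsB-tnsC). Plates contained 0.1 mM IPTG and were held at 37°C for 18 h. Input plasmids and genomic integration junctions were PCR-amplified and read by Illumina sequencing, with two biological output replicates and four reference barcodes. Relative integration efficiency is the fold change of output over input barcode abundance, normalised to the reference barcodes and log-transformed.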
In the case of “ACATTTGTTGATACAACCATAAAGTGATATTTACAACCATAAAGTGATATTTATCACAACCATAAGTTGATATTTTCTCTGATCATAGTCAGACCAACATTGCTACGACCCGTATTCGCACCGACAC”, the “relative integration efficiency (log2)” value was -0.279 ± 0.16.
As for “ACATTTGTTGATACAACCATAAAATGAGCCGGCCACCCATAAATTGAGCCGGCTCACACCCATAAATTGAGCGGTACTCTGATCATAGTCAGACCAACATTGCTACGACCCGTATTCGCACCGACAC”, the “relative integration efficiency (log2)” value is -1.65 ± 0.23.
“ACATTTGTTGATACACCCATAAATTGATATTGCCACCCATAAATTGATAATTATCACACCCATAAATTGATAATTACTCTGATCATAGTCAGACCAACATTGCTACGACCCGTATTCGCACCGACAC”: the “relative integration efficiency (log2)” value was -0.0383 ± 0.28.
For “ACATTTGTTGATACAACCATAAAATGATAATAACACCCATAAATTGATAATAATCACACCCATAAATTGATATTCCCTCTGATCATAGTCAGACCAACATTGCTACGACCCGTATTCGCACCGACAC”, the “relative integration efficiency (log2)” value is -0.098 ± 0.26.
Take “ACATTTGTTGATACACAACTAAAATGATAATTACACCCATAAATTGATAATTATCACACCCATAAATTGATATTGCCTCTGATCATAGTCAGACCAACATTGCTACGACCCGTATTCGCACCGACAC”: the “relative integration efficiency (log2)” value was -3.43 ± 1.4.
For “ACATTTGTTGATACAACCATAAAATGATAATTACACCCAATTTTTGATAATTATCACACCCATAAATTGATATTGCCTCTGATCATAGTCAGACCAACATTGCTACGACCCGTATTCGCACCGACAC” the value was -0.688 ± 0.35; for “ACATTTCTGGATACAACCATAAAATGATAATTACACCCATAAATTGATAATTATCACACCCAATTTAACTATAACGCTCTGATCATAGTCAGACCAACATTGCTACGACCCGTATTCGCACCGACAC”, 0.495 ± 0.035; for “ACATTTGTTGATACAACCATAAAATGATAATTACACCCATAAATTGATAATTATCACACCCATAAATTGATATTGCCTCTTAACACCCGTATTACTTCATAATCGTTTGTAATTCAAGCACCGACAC”, 1.41 ± 0.25.
“ACATTTGTTGATACAACCATAAAATGATAATTAATAATTATTTATAATCAGCAACCACCCATAAATTGATAATTATCAACAAACGCCCGGTCGCGGTACTCTGATCATAGTCAGACCAACATTGCTA”: the “relative integration efficiency (log2)” value is 0.0897 ± 0.14.
Under “ACATTTGTTGATACAACCATAAAATGATAATTACACCCATAAATTGATAATTATCACCCATAAATTGATATTGCCTCTGATCATAGTCAGACCAACATTGCTACGACCCGTATTCGCACCGACACTG” stands 2.21 ± 0.045; under “ACATTTGTTGATACAACCATAAAATGATAATTAATAATTATTTATAATCAGCCACCCATAAATTGATAATTATCAACAAACGCCCGGTCGCGGTACTCTGATCATAGTCAGACCAACATTGCTACGA”, 1.16 ± 0.037; under “ACATTTGTTGATACAACCATAAAATGATAATTACACCCATAAATTGATAATTATACACCCCATAAATTGATATTGCCTCTGATCATAGTCAGACCAACATTGCTACGACCCGTATTCGCACCGACAC”, 1.28 ± 0.067.
“ACATTTGTTGATACAACCATAAAACGATAATTACACCCATAAATTCATCATTATCACACCCAATTTAACTATAACGCTCTGATCATAGTCAGACCAACATTGCTACGACCCGTATTCGCACCGACAC”: the “relative integration efficiency (log2)” value was 1.29 ± 0.12.
Under “ACATTTGTGGATACAACCCTAAAATGATAATTACACCCATAAATTGATAATTATCACCCCCAATTTAACTATAACGCTCTGATCATAGTCAGACCAACATTGCTACGACCCGTATTCGCACCGACAC” stands 0.686 ± 0.29.
Regarding “ACATTTGTTGATACAACCATAAAATGATAATTACACCCATAAATTGATAATTATCACACCCATAAATTGATATCTCTGATCATAGTCAGACCAACATTGCTACGACCCGTATTCGCACCGACACTGA”, the “relative integration efficiency (log2)” value was -0.209 ± 0.13.
In the case of “ACATTTGTTGATACACCCATAAATTGATAATTACAACCATATATTGATATCTCTCACAACCATAAGTTGATATTTTCTCTGATCATAGTCAGACCAACATTGCTACGACCCGTATTCGCACCGACAC”, the “relative integration efficiency (log2)” value came out at 0.798 ± 0.25.
For the sequence “ACATTTGTTGATACAACCATAAAATGATAATTACACCCAGCCCTTGATAATTATCACACCCATAAATTGATATTGCCTCTGATCATAGTCAGACCAACATTGCTACGACCCGTATTCGCACCGACAC”, the “relative integration efficiency (log2)” value is -2.1 ± 0.29.
Consider “ACATTTGTTGATACAACCATAAAATGATAAGGCAACCCATAAATTGATAATTATCACACCCATAAATTGATATTGCCTCTGATCATAGTCAGACCAACATTGCTACGACCCGTATTCGCACCGACAC”, for which the “relative integration efficiency (log2)” value is -0.414 ± 0.36.
For “ACATTTGTTGATACACCCATAAATTGATATTGCCAACCATATATTGATATCTCTCACAACCATAAGTTGATATTTTCTCTGATCATAGTCAGACCAACATTGCTACGACCCGTATTCGCACCGACAC” the value was 1.12 ± 0.16; for “ACATTTGTTGATACAACCATAAAGTGATATTTACAACCATATATTGATATCTCTCACACCCATAAATTGATATTGCCTCTGATCATAGTCAGACCAACATTGCTACGACCCGTATTCGCACCGACAC”, 0.352 ± 0.16; for “ACATTTGTTGATACAACCATAAAATGATAATTACACCCATCAATTGATAATTATCCCACCCAATTTAACTATAACGCTCTGATCATAGTCAGACCAACATTGCTACGACCCGTATTCGCACCGACAC”, 1.54 ± 0.022.
For “ACATTTGTTGATACAACCATATATTGATATCTCCAACCATATATTGATATCTCTCACAACCATAAGTTGATATTTTCTCTGATCATAGTCAGACCAACATTGCTACGACCCGTATTCGCACCGACAC” the value was -0.0341 ± 0.43; for “ACATTTGTACATACAACCATAAAATGATAATTACACCCATAAATTGATAATTATCACACCCATAAATTGATATTGCCTCTGATCATAGTCAGACCAACATTGCTACGACCCGTATTCGCACCGACAC”, -1.97 ± 0.36; for “ACATTTGTTGATACACCCATAAATTGATAATTACAACCATAAAATGATAATTATCACAACCATATATTGATATCTCCTCTGATCATAGTCAGACCAACATTGCTACGACCCGTATTCGCACCGACAC”, -0.397 ± 0.063.
For “ACATTTGTTGATACAACCATAAAATGATAATTCACCCATAAATTGATAATTATCACACCCATAAATTGATATTGCCTCTGATCATAGTCAGACCAACATTGCTACGACCCGTATTCGCACCGACACT”, the “relative integration efficiency (log2)” value is -0.727 ± 0.39.
For “ACATTTGTTGATACAACCATAAAATGATAATTACACCCATAAATTGATATTGCTCACACCCATAAATTGATATTGCCTCTGATCATAGTCAGACCAACATTGCTACGACCCGTATTCGCACCGACAC” the value was 0.786 ± 0.29; for “ACATTTGTTGATACAACCATATATTGATATCTCCACCCATAAATTGATATTGCTCACAACCATAAAATGATAATTACTCTGATCATAGTCAGACCAACATTGCTACGACCCGTATTCGCACCGACAC”, -0.381 ± 0.46.
Under “ACATTTGTCGATACAACCATAAAATGATAATTACACCCATAAATGGATCATTATCACCCCCAATTTAACTATAACGCTCTGATCATAGTCAGACCAACATTGCTACGACCCGTATTCGCACCGACAC” stands 1.19 ± 0.086; under “ACATTTGTTGATACAACCCTAAAATGATAATTACACCCATAAATTGATCATTATCACACCCAATTTAACTATAACGCTCTGATCATAGTCAGACCAACATTGCTACGACCCGTATTCGCACCGACAC”, 0.357 ± 0.061; under “ACATTTGTTGATACAACCATAAAATGATAATTACACCCATAAATTGATTCACACCCATAAATTGATATTGCCTCTGATCATAGTCAGACCAACATTGCTACGACCCGTATTCGCACCGACACTGACT”, 2.09 ± 0.12.
Turning to “ACATTTCTGGATACAACCATAAAATGATAATTACACCCATAAATGGATAATTATCACACCCAATTTAACTATAACGCTCTGATCATAGTCAGACCAACATTGCTACGACCCGTATTCGCACCGACAC”, the “relative integration efficiency (log2)” value is -0.444 ± 0.28.
For “ACATTTGTTGATACAACCATAAAAACTAAATTACACCCATAAATTGATAATTATCACACCCATAAATTGATATTGCCTCTGATCATAGTCAGACCAACATTGCTACGACCCGTATTCGCACCGACAC” the value was -1.55 ± 0.34.
